Assay [1] has as its target fluorescein-labelled single cysteine mutant of arrestin-2 (arrestin-2-S234C on cysteine-less background) (bovine) (UniProt P17870). The assay can be described thus: FRET or BRET. (In general: Bioluminescence resonance energy transfer reports proximity on the nanometre scale.)
The target of assay [2] is fluorescein-labelled single cysteine mutant of arrestin-3 (arrestin-3-L101C on cysteine-less background) (bovine) (UniProt P32120). The assay can be described thus: FRET or BRET.
Chain of UniProt P32120 (P32120 whole entry L101C, stated change not applied): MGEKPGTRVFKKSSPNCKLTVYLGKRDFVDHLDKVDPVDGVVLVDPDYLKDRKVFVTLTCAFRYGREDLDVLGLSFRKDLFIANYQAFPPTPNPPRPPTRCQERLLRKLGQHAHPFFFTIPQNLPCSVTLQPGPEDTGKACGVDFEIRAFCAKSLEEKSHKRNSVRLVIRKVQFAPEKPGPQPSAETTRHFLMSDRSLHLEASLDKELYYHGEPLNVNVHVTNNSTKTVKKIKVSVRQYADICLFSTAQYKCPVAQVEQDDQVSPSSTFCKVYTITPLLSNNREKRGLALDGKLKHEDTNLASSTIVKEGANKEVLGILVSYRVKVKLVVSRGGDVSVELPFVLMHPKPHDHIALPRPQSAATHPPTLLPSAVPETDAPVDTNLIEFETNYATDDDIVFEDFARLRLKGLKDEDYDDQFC

Chain of UniProt P17870 (P17870 whole entry S234C, stated change not applied): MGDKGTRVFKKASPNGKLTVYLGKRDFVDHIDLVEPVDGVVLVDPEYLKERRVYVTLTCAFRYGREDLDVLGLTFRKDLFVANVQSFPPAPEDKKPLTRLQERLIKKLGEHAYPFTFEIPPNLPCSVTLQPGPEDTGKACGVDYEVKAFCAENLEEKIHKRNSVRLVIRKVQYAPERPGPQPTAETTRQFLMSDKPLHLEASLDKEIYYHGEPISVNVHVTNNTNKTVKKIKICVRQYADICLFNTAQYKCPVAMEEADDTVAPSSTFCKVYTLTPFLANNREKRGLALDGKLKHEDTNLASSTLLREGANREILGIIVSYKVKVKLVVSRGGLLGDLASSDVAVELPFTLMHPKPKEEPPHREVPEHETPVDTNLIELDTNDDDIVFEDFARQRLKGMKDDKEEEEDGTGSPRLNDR

For the substance “Alexa-568-labeled JNK3α2-His (from UniProt P53779 1-464) (enzyme)”, the Kd (in general, the concentration at which binding is half-saturated) worked out at 6.1 µM in assay [1] and 4.4 µM in assay [2].

These data come from publication PMC3227541.
